{
  "source": "paper PMC8199771",
  "origin": "cited, not measured here",
  "key": {"[1]": {"target": "muscle nAChR alpha1-gamma and alpha1-delta interfaces (Mus musculus) (UniProt P04756)"}, "[2]": {"target": "muscle nAChR alpha1-epsilon interface (Mus musculus) (UniProt P04756)"}, "[3]": {"target": "muscle nAChR alpha-epsilon interface (Mus musculus) (UniProt P04756)"}, "[4]": {"target": "muscle nAChR (Homo sapiens) (UniProt P02708)"}, "[5]": {"target": "muscle nAChR alpha-delta interface (Mus musculus) (UniProt P04756)"}},
  "data": [
    {"substance": "NmmI (from UniProt P01431)", "values": [
      {"measurement": "Kd", "setting": "[1]", "result": 0.1, "unit": "nM"},
      {"measurement": "Kd", "setting": "[2]", "result": 100, "unit": "nM"}
    ]},
    {"substance": "Waglerin-1 (from UniProt P24335)", "values": [
      {"measurement": "Kd", "setting": "[3]", "result": 9.8, "unit": "nM"},
      {"measurement": "Kd", "setting": "[4]", "result": 692, "unit": "nM"},
      {"measurement": "Kd", "setting": "[5]", "result": 20200, "unit": "nM"}
    ]}
  ]
}
